Results on seven variants are retold here after paper PMC3748058 (2013).

B1: GFP lamin A WT [human] / GST Nesprin-2 SR52,53 [human] (parent complex)
chain 1: METPSQRRATRSGAQASSTPLSPTRITRLQEKEDLQELNDRLAVYIDRVRSLETENAGLRLRITESEEVVSREVSGIKAAYEAELGDARKTLDSVAKERARLQLELSKVREEFKELKARNTKKEGDLIAAQARLKDLEALLNSKEAALSTALSEKRTLEGELHDLRGQVAKLEAALGEAKKQLQDEMLRRVDAENRLQTMKEELDFQKNIYSEELRETKRRHETRLVEIDNGKQREFESRLADALQELRAQHEDQVEQYKKELEKTYSAKLDNARQSAERNSNLVGAAHEELQQSRIRIDSLSAQLSQLQKQLAAKEAKLRDLEDSLARERDTSRRLLAEKEREMAEMRARMQQQLDEYQELLDIKLALDMEIHAYRKLLEGEEERLRLSPSPTSQRSRGRASSHSSQTQGGGSVTKKRKLESTESRSSFSQHARTSGRVAVEEVDEEGKFVRLRNKSNEDQSMGNWQIKRQNGDDPLLTYRFPPKFTLKAGQVVTIWAAGAGATHSPPTDLVWKAQNTWGCGNSLRTALINSTGEEVAMRKLVRSVTVVEDDEDEDGDDLLHHHHGSHCSSSGDPAEYNLRSRTVLCGTCGQPADKASASGSGAQVGGPISSGSSASSVTVTRSYRSVGGSGGGSFGDNLVTRSYLLGNSSPRTQSPQNCSIM
chain 2: SRFEDWLKSAERTAACPNSSEVLYTSAKEELKRFEAFQRQIHERLTQLELINKQYRRLARENRTDTASRLKQMVHEGNQRWDNLQRRVTAVLRRLRHFTNQREEFEGTRESILVWLTEMDLQLTNVEHFSESDADDKMRQLNGFQQEITLNTNKIDQLIVFGEQLIQKSEPLDAVLIEDELEELHRYCQEVFGRVSRFHRRL

In the test the parent is B1. Nature of the test: GST pull-down, western blot quantification; COS7 cell lysates; four to seven independent experiments; parent: 0; read off a plot.
Take chain 1 G413C: the screen value was approximately -22%. On to chain 1 L421P, for which the screen value is approximately -29%. chain 1 R401C: the screen value is approximately 51%. As for chain 1 G411D, the screen value was approximately 11%.

chain 1 R427G: the screen value is approximately -15%. With chain 1 V415I, the screen value is approximately 55%.

As to chain 1 R419C, the screen value was approximately -10%.
